Results on seven molecules are retold here after patent publication US20110263824A1.

For experiment [1], the target named is human serum protein. The experiment in a line: adsorption of TM2 variant to human serum protein-immobilized magnetic beads, western blot quantification. Background: Immunoblotting shows a protein as a band on a membrane.
Experiment [2] has as its target human serum protein. In words: summary of Example 1-9: adsorption to human serum protein-immobilized magnetic beads.
In experiment [3] the target is human serum protein. The experiment in a line: adsorption to human serum protein-immobilized magnetic beads, western blot quantification.
For experiment [4], the target named is human serum protein. The experiment in a line: human serum (1:800) adsorbed to TM2 variant-immobilized magnetic beads, HRP-labeled anti-human IgG detection.
The target in experiment [5] is human serum protein. In words: human serum (1:800) adsorbed to TM2-immobilized magnetic beads, HRP-labeled anti-human IgG detection.
For experiment [6], the target named is human serum protein. The experiment in a line: adsorption of TM2 to human serum protein-immobilized magnetic beads, western blot quantification (reference).

Substitutions are numbered along the chain they refer to. Numbers in names are those of the source.

B1: TM2 K26A (protein)
chain: MSDVQSSLTGTWYNELNSKMELTANADGTLTGKYLSKVGDVYVPYPLSGRYNLQPPAGQGVALGWAVSWENSKIHSATTWSGQFFSESSPVILTQWLLSSSTARGDVWESTLVGNDSFTKTAPTEQQIAHAQLHCRAPRLK
With B1, the Non-specific binding of serum protein (%) (% of wild type TM2) in the experiment with human serum protein [1] was 68. Also, the non-specific binding and adsorption relative to wild type TM2 (% of wild type TM2) in the experiment with human serum protein [2] was 60. This molecule displayed a decrease of adsorption to human serum protein compared to the wild type TM2 with human serum protein [3] of 30%.

B2: TM2 D40NR104EK141E (protein)
chain: B1 chain with A26K, D40N, R104E, K141E
For B2, the Non-specific binding to serum protein (A450) in the experiment with human serum protein [4] was determined as 0.45 A450.

B3: TM2 R104E (protein)
chain: B1 chain with A26K, R104E
In turn, B3 showed a Non-specific binding of serum protein (%) (% of wild type TM2) with human serum protein [1] of 90. The same molecule registered a decrease of adsorption to human serum protein compared to the wild type TM2 with human serum protein [3] of 10%.

B4: tamavidin 2 (wild type) (protein)
chain: B1 chain with A26K
Turning to B4, the Non-specific binding to serum protein (A450) with human serum protein [5] came to 0.67 A450. In addition, the Non-specific binding of serum protein (%) (% of wild type TM2) with human serum protein [6] is 100.

B5: TM2 K141E (protein)
chain: B1 chain with A26K, K141E
Take B5: the Non-specific binding of serum protein (%) (% of wild type TM2) in the experiment with human serum protein [1] is 58. For the same molecule, the non-specific binding and adsorption relative to wild type TM2 (% of wild type TM2) with human serum protein [2] came out at 60. In the experiment with human serum protein [3], this molecule came in with a decrease of adsorption to human serum protein compared to the wild type TM2 of 40%.

B6: TM2 K73Q (protein)
chain: B1 chain with A26K, K73Q
B6 registered a Non-specific binding of serum protein (%) (% of wild type TM2) in the experiment with human serum protein [1] of 55. In the experiment with human serum protein [2], this molecule showed a non-specific binding and adsorption relative to wild type TM2 (% of wild type TM2) of 60. Further, the decrease of adsorption to human serum protein compared to the wild type TM2 with human serum protein [3] worked out at 40%.

B7: TM2 R104EK141E (protein)
chain: B1 chain with A26K, R104E, K141E
For B7, the Non-specific binding of serum protein (%) (% of wild type TM2) with human serum protein [1] is 25. The molecule also came in with a non-specific binding and adsorption relative to wild type TM2 (% of wild type TM2) in the experiment with human serum protein [2] of 20. This molecule also gave a decrease of adsorption to human serum protein compared to the wild type TM2 with human serum protein [3] of 70%.
